Test system: MS2 coat protein
Experiment: apparent KD of MS2 coat protein; designed switch direction (-1 OFF switch, 1 ON switch): -1; higher = weaker reporter binding
Summary of the method: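 SNAP-549-labelled MS2 coat protein was titrated, doubling from 0.7 or 1.5 nM to 3 µM, over designed RNA switches transcribed on Illumina chips by stalled E. coli RNA polymerase. Runs were done without input, with 200 uM small-molecule ligand, or with an oligonucleotide input. Apparent KD is the per-design median over clusters of curve-fitted normalised fluorescence.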

[1] = Eterna round: R95, input ligand: microRNA oligo, concentration not stated
[2] = Eterna round: R95, input ligand: FMN 200 uM
[3] = Eterna round: R95, input ligand: none
[4] = input ligand: microRNA oligo, concentration not stated

| Sequence | apparent KD of MS2 coat protein [1] [nM] | apparent KD of MS2 coat protein (input ligand: FMN 200 uM) [nM] | apparent KD of MS2 coat protein (input ligand: none) [nM] | other results |
| --- | --- | --- | --- | --- |
| ACCUCACAUGAGGAUCACCCAUGUUAGGAUAUCUCGAUGCUCCGCGGGCGGGAGCAUCAGAGAAGGAACGUGCA [Geusarvees] (puzzle: Exclusion 1) | 18.3 |  |  |  |
| ACCUCUGAGGAGGAUAUACAGUGCGAAAGGACAGUAGAAGGCUUCACAUGAGGAUCACCCAUGUCGAAUAGUGA [EX6 #79] (Eterna round: R97, puzzle: Exclusion 6) |  | 86.1 | 58.7 |  |
| ACGAAACAUGAGGAUCACCCAUGUGAGGAUAUUAUGUUAUAAUACAUACUAUACAUAUUAAGAAGGCACAUUGG [Design #12] (Eterna round: R97, puzzle: Exclusion 1) |  | 138 | 74.6 |  |
| ACGAAAGCAAACAGGUGAAACAUGAGGAUCACCCAUGUCCUCAUUUGCUCGUCUUAUAAGCUAUGCGAAAGCAUAGC [Mat - Sensor v3 - turn-off var 1 - Eli Mod - D53] (puzzle: Sensor v3, turn-off variant 1) | 1270 |  |  | apparent KD of MS2 coat protein [2]: 60.4 nM; apparent KD of MS2 coat protein [3]: 72.4 nM |
| ACGAGCUUUUUGCUCGUUUACAUGAGGAUCACCCAUGUGUCUUCGCGCCCGGGCCCGGGCGGGCCCGGGCCCGGGCG [-52.9, -56.9, A 10%] (Eterna round: R97, puzzle: Sensor, turn-off variant 1) |  | 50.6 | 57.6 |  |
| ACGAGGUCAGGAUAUACAGAGAGAAGGAGUUGGUUGAGGUAACAUGAGGAUCACCCAUGUAGAAGGGACUGGGA [JR_Exclu2_Sub081] (puzzle: Exclusion 2) | 31.2 |  |  | apparent KD of MS2 coat protein [2]: 48 nM; apparent KD of MS2 coat protein [3]: 34.9 nM |
| ACGAUGACUGAAAGAAGUCAAAAGACAUGAGGAUCACCCAUGUAGGAUAUGGCUACGAAAAGUAGUCAGAAGGACAAGUCAUCA [Omei Exc(NG) 3 Av4] (Eterna round: R96, puzzle: Exclusion NG 3) |  | 10.1 | 14.1 | apparent KD of MS2 coat protein [4]: 9.69 nM |
| ACGCAACAUGAGGAUCACCCAUGUGAGGAUAUGUAAAUAGUAAACAAAUAGGAAAUGAACAGAAGGCACACCGG [JR_Exclusion1_Sub005] (puzzle: Exclusion 1) | 32.5 |  |  |  |
| ACGCAUUGCCUUUGGUAGUGCGUAACAUGAGGAUCACCCAUGUAGGAUAUGGUAGGCUUUGCUUACCAGAAGGACAUUAUAAUC [Mat - Exclusion NG 3 - Mod of JL - D8] (Eterna round: R96, puzzle: Exclusion NG 3) |  | 65 | 25.1 | apparent KD of MS2 coat protein [4]: 18.5 nM |
| ACGCAUUGCCUUUGGUAGUGCGUUACAUGAGGAUCACCCAUGUAGGAUAUGGUAGGCUUUGCUUACCAGAAGGACAUGAUAAUU [JL ENG3 1.02] (Eterna round: R96, puzzle: Exclusion NG 3) |  | 195 | 37.4 | apparent KD of MS2 coat protein [4]: 29.1 nM |
| ACGCCAGGAGGAUAUGCAAUAAGUAACAUGAGGAUCACCCAUGUUCGGGCGAUGCUCGUGGCAGAAGGCCUAGCCG [Edteonra] (Eterna round: R97, puzzle: Exclusion 5) |  | 329 | 36.1 |  |
| ACGCCUCCUGUCAGGAUAUGCAUCGGGCUUCCGCAGCAGAAGGGACAUGAGGAUCACCCAUGUCAAAUAAAAUC [Onsoqule] (puzzle: Brourd's mod of Exclusion 4) | 16.3 |  |  |  |
| ACGGACCGAGGAUAUGCAUGCAGGAUACCUGGGUCCAAUGGACAUGAGGAUCACCCAUGUAGAAGGCGGAAAUA [Arinisra] (Eterna round: R97, puzzle: Exclusion 2) |  | 86.3 | 31.4 |  |
| ACGGUCAUAGGAUAUACUGGGACAGCGCUAAGGCGCCCUUGACAUGAGGAUCACCCAUGUAGAAGGAUGUCCGA [EX2 C.1] (Eterna round: R97, puzzle: Exclusion 2) |  | 152 | 22.6 |  |
| ACGUAUAGAGGAUAUAGUGAAUAUUACAUGAGGAUCACCCAUGUUCUUCAAAGCAUAUUCCUAGAAGGCUGAUGAA [EX-5 Malc#13] (puzzle: Exclusion 5) | 47.5 |  |  |  |
| ACUAGAUGAGGAUAUGCACAUUUUAGUGUUCCUCUAGAUUAACAUGAGGAUCACCCAUGUAGAAGGCGUCAUUA [Exclusion 2 - 14] (puzzle: Exclusion 2) | 49.9 |  |  |  |
| ACUCACGCAGGAUAUACAUGAGGAUCACCCAUGUUCGAAGGGCGUGGGCACAAAGUCUGUAGAAGGGCGAAAAU [Zave] (Eterna round: R97, puzzle: Exclusion 3) |  | 19.2 | 16.3 |  |
| ACUCACUCGCGAGGAUAUGGACAAAUAUAAACGCUAGAAGGCGCGACAUGAGGAUCACCCAUGUACUCACUCACUCACUCACAU [my 1st design ever] (Eterna round: R96, puzzle: Exclusion NG 1) |  | 62.6 | 41.9 | apparent KD of MS2 coat protein [4]: 27.5 nM |
| ACUCAGUGAGGAUAUCGCCAAAGAGCCGUAACGGCCUUUGAUGAGAAGGCACAUGAGGAUCACCCAUGUAAGCA [EX4 C.1] (Eterna round: R97, puzzle: Exclusion 4) |  | 387 | 122 |  |
